From the supplement of paper PMC12338614
± gives the uncertainty stated by the source.

B1: library; numbered along this chain (parent)
chain: MEVVDPQQLGMFTEGELMSVGMDTFIHRIDSTEVIYQPRRKRAKLIGKYLMGDLLGEGSYGKVKEVLDSETLCRRAVKILKKKKLRRIPNGEANVKKEIQLLRRLRHKNVIQLVDVLYNEEKQKMYMVMEYCVCGMQEMLDSVPEKRFPVCQAHGYFCQLIDGLEYLHSQGIVHKDIKPGNLLLTTGGTLKISDLGVAEALHPFAADDTCRTSQGSPAFQPPEIANGLDTFSGFKVDIWSAGVTLYNITTGLYPFEGDNIYKLFENIGKGSYAIPGDCGPPLSDLLKGMLEYEPAKRFSIRQIRQHSWFRKKHPPAEAPVPIPPSPDTKDRWRSMTVVPYLEDLHGADEDEDLFDIEDDIIYTQDFTVPGQVPEEEASHNGQRRGLPKAVCMNGTEAAQLSTKSRAEGRAPNPARKACSASSKIRRLSACKQQ

Variants of: B1
Test: STK11 functional score (HeLa growth suppression), rescaled enrichment; synonymous median = 1, nonsense median = 0 (normalised score)
Conditions: with HeLa; variant type: missense
In short: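 The values are functional scores: wild-type-corrected log ratios of post- versus pre-selection abundance, rescaled to synonymous and nonsense medians, merged over codons and replicate transfections, and carrying bootstrapped error. They derive from codon-randomised (POPCode), codon-optimised STK11 libraries that Bxb1 integrated at an AAVS1 landing pad in HeLa, with three transfections for each of three regions. Sequencing of tiled gDNA amplicons ran on NextSeq, at ~2 million reads per tile.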
S422D gave an STK11 functional score of 1.59 ± 0.12. P280I showed an STK11 functional score of 1.36 ± 0.34. Work on N181M yielded an STK11 functional score of -0.246 ± 0.091. Variant C151I has an STK11 functional score of 0.722 ± 0.19. For C430S, the STK11 functional score was 1.56 ± 0.34. C430G was tested, and the STK11 functional score was 1.55 ± 0.19. Variant S378K has an STK11 functional score of 1.6 ± 0.28. R74H showed an STK11 functional score of 1.6 ± 0.47. For K82H, the STK11 functional score was 1.08 ± 0.22. For K82F, the STK11 functional score was 0.966 ± 0.26. Variant K82P has an STK11 functional score of 1.69 ± 0.18. K311S gave an STK11 functional score of 0.915 ± 0.3. G196V gave an STK11 functional score of 1.08 ± 0.12. In the case of G268R, the STK11 functional score is reported as 1.44 ± 0.2. G268D was tested, and the STK11 functional score was 1.53 ± 0.19. With R333Y the STK11 functional score was 1.55 ± 0.23. F231W gave an STK11 functional score of 0.409 ± 0.37. With F231T the STK11 functional score was 1.64 ± 0.39. K48A showed an STK11 functional score of 0.852 ± 0.2. K48W showed an STK11 functional score of 0.798 ± 0.087. In the case of G56R, the STK11 functional score is reported as 0.136 ± 0.092. In the case of G56E, the STK11 functional score is reported as 1.13 ± 0.098. Work on G56Y yielded an STK11 functional score of -0.102 ± 0.094. With A76I the STK11 functional score was 1.4 ± 0.15. Work on Q123T yielded an STK11 functional score of 1.27 ± 0.65. For S307T, the STK11 functional score was 1.22 ± 0.52. S307F gave an STK11 functional score of 1.38 ± 0.1. Variant I161T has an STK11 functional score of 1.31 ± 0.66. Q152P showed an STK11 functional score of 0.0642 ± 0.62. In the case of L54F, the STK11 functional score is reported as 0.99 ± 0.078. L54P was tested, and the STK11 functional score was 1.21 ± 0.18. Work on L17S yielded an STK11 functional score of 1.35 ± 0.55. Y36M showed an STK11 functional score of 0.892 ± 0.31. With E57H the STK11 functional score was 1.53 ± 0.34. In the case of E57F, the STK11 functional score is reported as 0.821 ± 0.094. Work on E57W yielded an STK11 functional score of 0.873 ± 0.077. Variant E57T has an STK11 functional score of 1.69 ± 0.29. S59F showed an STK11 functional score of 0.672 ± 0.24. In the case of S59A, the STK11 functional score is reported as 1.19 ± 0.2. Variant F234G has an STK11 functional score of 1.33 ± 0.41. I79G was tested, and the STK11 functional score was 0.345 ± 0.22. For I79S, the STK11 functional score was 0.761 ± 0.099. Work on G288D yielded an STK11 functional score of -0.347 ± 0.084. L344I gave an STK11 functional score of 1.13 ± 0.43. D207L showed an STK11 functional score of 0.856 ± 0.12. N119K gave an STK11 functional score of 1.18 ± 0.15. G180N gave an STK11 functional score of 1.39 ± 0.47. In the case of G180P, the STK11 functional score is reported as 0.814 ± 0.13. I192F showed an STK11 functional score of 1.13 ± 0.53. Work on Y261C yielded an STK11 functional score of 0.999 ± 0.41. N259H gave an STK11 functional score of 1.66 ± 0.14. N259M gave an STK11 functional score of 1.35 ± 0.12. In the case of D162R, the STK11 functional score is reported as 1.55 ± 0.43. For D355Q, the STK11 functional score was 1.28 ± 0.16. Work on D355A yielded an STK11 functional score of 0.938 ± 0.15. R384G gave an STK11 functional score of 1.28 ± 0.1. Work on R384A yielded an STK11 functional score of 1.33 ± 0.24. For L427F, the STK11 functional score was 1.31 ± 0.23. E265T was tested, and the STK11 functional score was 1.56 ± 0.25. In the case of E265W, the STK11 functional score is reported as 1.57 ± 0.21. K124A showed an STK11 functional score of 1.13 ± 0.59. D208S was tested, and the STK11 functional score was 1.26 ± 0.13. D208W showed an STK11 functional score of 0.524 ± 0.58. With F148M the STK11 functional score was 1.3 ± 0.082. With F148Q the STK11 functional score was 0.0904 ± 0.082. K431F gave an STK11 functional score of 1.59 ± 0.28. In the case of G257S, the STK11 functional score is reported as 1.39 ± 0.13. K96N gave an STK11 functional score of 1.14 ± 0.35. In the case of I88Y, the STK11 functional score is reported as 1.67 ± 0.21. Q170K gave an STK11 functional score of 0.664 ± 0.14. Q170A showed an STK11 functional score of 0.916 ± 0.14. M18R gave an STK11 functional score of 0.834 ± 0.13. M18Q was tested, and the STK11 functional score was 1.28 ± 0.12. Work on M18G yielded an STK11 functional score of 1.36 ± 0.22. Q159G showed an STK11 functional score of 1.1 ± 0.15. Variant T189W has an STK11 functional score of 1.2 ± 0.13. P339D was tested, and the STK11 functional score was 1.55 ± 0.23. Work on G58N yielded an STK11 functional score of 0.559 ± 0.29. For G58L, the STK11 functional score was -0.188 ± 0.095. Work on L190V yielded an STK11 functional score of 1 ± 0.28. Variant L195T has an STK11 functional score of 1.67 ± 0.15. Work on V66H yielded an STK11 functional score of 1.37 ± 0.19. For V66G, the STK11 functional score was 0.814 ± 0.17.
